This data set deals with the molecule itself. As to the kind of experiment: SEC; Superdex 200 10/300 GL; recombinant LITAF constructs; wild type LITAF kept in detergent. A general note: In gel filtration, larger molecules generally elute earlier.

The values that follow come from publication PMC5142333, “The topology, structure and PE interaction of LITAF underpin a Charcot-Marie-Tooth disease type 1C” (BMC Biology, 2016).

B1: wild type LITAF (full length, recombinant) (natural protein, human, UniProt Q99732 1-161, looked up)
chain: MSVPGPYQAATGPSSAPSAPPSYEETVAVNSYYPTPPAPMPGPTTGLVTGPDGKGMNPPSYYTQPAPIPNNNPITVQTVYVQHPITFLDRPIQMCCPSCNKMIVSQLSYNAGALTWLSCGSLCLLGCIAGCCFIPFCVDALQDVDHYCPNCRALLGTYKRL
notes: Lipopolysaccharide-induced tumour necrosis factor-alpha factor (LITAF, SIMPLE), human, full length wild type; Kept soluble with detergent (1% DDM or 1% FC12 at lysis, 0.04% DDM or 0.125% FC12 afterwards); also called LITAF WT; full length wild type LITAF protein; source: C43(DE3) BL21 E. coli, purified in detergent (Ni-NTA, ULP1 cleavage, SEC; DDM or FC12); not shown: His6, N-terminal, cleaved; …
B1: the binding result is reported as “binds”.
